According to US20260191974A1 (UNIVERSITY OF NORTH CAROLINA AT CHAPEL HILL, published 2026):
Blank lines part the entries; values can stand above or below the binder they belong to. Bridges are numbered along the chain shown (N, C = ends). DBX = not defined here

Tests used:
human B7-H3 (hB7-H3) [1] = target: T1, human B7-H3 (hB7-H3) (human, UniProt Q5ZPR3 29-461, limits assumed); assay: SPR; hB7-H3 as ligand on the chip, peptide as analyte
T1 construct: The construct is not described
T1 sequence (looked up): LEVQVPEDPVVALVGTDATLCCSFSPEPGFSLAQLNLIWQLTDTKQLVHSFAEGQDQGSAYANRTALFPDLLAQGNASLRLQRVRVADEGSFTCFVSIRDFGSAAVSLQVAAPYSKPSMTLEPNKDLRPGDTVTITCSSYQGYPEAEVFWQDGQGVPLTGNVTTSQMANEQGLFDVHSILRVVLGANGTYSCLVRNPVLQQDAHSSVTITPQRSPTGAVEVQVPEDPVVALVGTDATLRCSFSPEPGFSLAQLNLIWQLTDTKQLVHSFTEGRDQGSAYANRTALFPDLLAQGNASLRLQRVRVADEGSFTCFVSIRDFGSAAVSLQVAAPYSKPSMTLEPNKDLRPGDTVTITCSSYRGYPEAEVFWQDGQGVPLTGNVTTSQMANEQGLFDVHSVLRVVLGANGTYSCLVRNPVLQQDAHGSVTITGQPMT

human B7-H3 (hB7-H3) [2] = target: T1, human B7-H3 (hB7-H3); assay: SPR; reduced (no disulfide bridge)
[3] = target: T2, biotinylated B7-H3 (B7-H3b), immune checkpoint protein; assay: JP5 alanine mutant library in mRNA display: background screen on beads, then selection on biotinylated B7-H3; NGS, enrichment in the selection over the input library
T2 construct: also called biotin immobilized B7-H3; streptavidin immobilized B7-H3
T2 sequence (Q5ZPR3 whole entry, species assumed, looked up): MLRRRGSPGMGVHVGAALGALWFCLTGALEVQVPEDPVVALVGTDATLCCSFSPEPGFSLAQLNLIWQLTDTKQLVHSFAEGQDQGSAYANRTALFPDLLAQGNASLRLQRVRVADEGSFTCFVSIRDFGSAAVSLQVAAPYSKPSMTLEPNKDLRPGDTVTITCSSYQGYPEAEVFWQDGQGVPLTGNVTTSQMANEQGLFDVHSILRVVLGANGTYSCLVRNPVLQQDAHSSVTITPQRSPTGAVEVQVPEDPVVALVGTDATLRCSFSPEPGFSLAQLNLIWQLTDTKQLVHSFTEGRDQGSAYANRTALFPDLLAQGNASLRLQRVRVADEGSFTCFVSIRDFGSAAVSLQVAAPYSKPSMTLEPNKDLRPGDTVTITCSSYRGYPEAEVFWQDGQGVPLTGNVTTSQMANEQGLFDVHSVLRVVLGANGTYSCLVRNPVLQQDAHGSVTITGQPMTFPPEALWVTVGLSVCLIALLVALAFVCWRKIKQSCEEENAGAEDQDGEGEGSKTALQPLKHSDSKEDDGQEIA
Excerpt: FIGS. 17A-17B. JP5 alanine mutant library design and screen. (FIG. 17A) Each library member with the parent JP5 sequence on the top. JP5 was mutated at each residue to an Alanine. All library members, and JP5, were screened first against background components (magnetic beads) to remove nonspecific binders and then against biotinylated B7-H3 (see FIG. 14B). […] A value of >1 indicates stronger enrichment in the selection, whereas a value<1 indicates a stronger enrichment in the input library.
A single variant library of JP5 (FIG. 13A) and JP3 (FIG. 14A) was carried out. Each residue was mutated to include potentially 20/20 canonical amino acids. All library members were screened first against background components (magnetic beads) to remove nonspecific binders and then against biotinylated B7-H3 (FIG. 13B). […] The recovered material from the B7-H3 selection of JP5 and JP3 was sent for NGS (FIG. 15 and FIG. 16, respectively). In addition, JP5 was subjected to an alanine mutant scan (FIG. 17A). All library members were screened first against background components (magnetic beads) to remove nonspecific binders and then against biotinylated B7-H3 (see FIG. 13B). […] The selected AMs will be tested with surface plasmon resonance (SPR) to assess binding affinity.

murine B7-H3 (mB7-H3) [4] = target: T3, murine B7-H3 (mB7-H3) (murine, UniProt Q8VE98 29-244, limits assumed); assay: SPR; mB7-H3 as ligand on the chip, peptide as analyte
T3 construct: The construct is not described
T3 sequence (looked up): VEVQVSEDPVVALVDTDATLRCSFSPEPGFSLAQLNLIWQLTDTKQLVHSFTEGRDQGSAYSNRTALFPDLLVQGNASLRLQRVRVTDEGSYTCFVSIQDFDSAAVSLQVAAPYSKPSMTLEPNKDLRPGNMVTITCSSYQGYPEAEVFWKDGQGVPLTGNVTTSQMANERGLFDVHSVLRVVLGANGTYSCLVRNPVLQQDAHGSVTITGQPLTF

murine B7-H3 (mB7-H3) [5] = target: T3, murine B7-H3 (mB7-H3); assay: SPR
human B7-H3 (hB7-H3) [6] = target: T1, human B7-H3 (hB7-H3); assay: SPR
[7] = target: T2, biotinylated B7-H3 (B7-H3b), immune …; assay: SPR (BIACORE 8K, single-cycle kinetics, 1:1 fit); biotinylated B7-H3 on a NeutrAvidin chip, peptide as analyte at 7.5-120 nM
Excerpt: FIGS. 4A-4G. (FIG. 4A) Selection schematic detailing the selection process for identifying binders against B7-H3. (FIG. 4B) qPCR results of the mTG mediated B7-H3 selection. (FIG. 4C) B7-H3 selection results and complete NGS analysis of B7-H3 hits. (FIG. 4D) NGS data of the selection hits. […] Arrow indicates the peptide pursued for binding validation. (FIG. 4E) EIC ([M+2], 948.91 m/z) traces corresponding to the product of the mTG reaction with linear B1.1 peptide and the synthetic lactam, disulfide peptide. (FIG. 4F) Surface Plasmon Resonance (SPR) analysis of the selected peptide (B1.1), the Met9Nle variant, and the linear variant. […] The selected B1.1 and the Met9Nle variant were analyzed at analyte concentrations of 7.5, 15, 30, 60, 120 nM. The linear variant was analyzed at analyte concentrations of 50, 100, 200, 400, 800 nM. […] (FIG. 4G) Individual SPR curves. Fitted curve and raw data are shown.
Surface Plasmon Resonance (SPR) analysis. Binding kinetics between our selected peptide (and variants) and biotinylated B7-H3 (B7-H3b) were assessed through SPR analysis using a BIACORE 8K SPR system (GE Healthcare). […] Analyte was then injected over a series of five concentrations and quantified by BIACORE single-cycle kinetics method. […] Binding sonograms were generated using a standard 1:1 binding kinetics model and kinetics constants determined using standard BIACORE evaluation software.

human B7-H3 (hB7-H3) [8] = target: T1, human B7-H3 (hB7-H3); assay: SPR; oxidized (with disulfide bridge)
[9] = target: T2, biotinylated B7-H3 (B7-H3b), immune …; assay: SPR, Biacore 8K single-cycle kinetics, biotinylated B7-H3 on NeutrAvidin chip, peptide as analyte
Experimental: Surface Plasmon Resonance (SPR) analysis. Binding kinetics between our selected peptide (and variants) and biotinylated B7-H3 (B7-H3b) were assessed through SPR analysis using a BIACORE 8K SPR system (GE Healthcare). The running buffer was 1×PBS pH7.5, 0.05% TWEEN® 20 and all analysis was carried out at 25° C. B7-H3b was loaded onto a NeutrAvidin SPR Chip (Series S Sensor Chip NA, 29407997, Cytiva) at a flow rate of […] to a surface density of 1000-1500 response units. Analyte was then injected over a series of five concentrations and quantified by BIACORE single-cycle kinetics method. For our selected peptide (B1.1) and the Met9Nle variant a range of 7.5, 15, 30, 60, 120 nM were run. For the linear variant concentrations of 50, 100, 200, 400, 800 nM were run. Binding sonograms were generated using a standard 1:1 binding kinetics model and kinetics constants determined using standard BIACORE evaluation software.

B2: AM7 (peptide)
peptide: Ac-CWTIRDIAGTRC-NH2
modifications: bridge 1-12; also: bracket C1-C12, bond type not given here
notes: Member of the JP5 alanine mutant library; also called JP5 alanine mutant 7
- SELECTION/INPUT [3]: 1.53

B3: AM3 (peptide)
peptide: Ac-CWTARDINGTRC-NH2
modifications: bridge 1-12; also: bracket C1-C12, bond type not given here
notes: Member of the JP5 alanine mutant library; also called JP5 alanine mutant 3
- SELECTION/INPUT [3]: 0.309

B4: AM1 (peptide)
peptide: Ac-CATIRDINGTRC-NH2
modifications: bridge 1-12; also: bracket C1-C12, bond type not given here
notes: Member of the JP5 alanine mutant library; also called JP5 alanine mutant 1
- SELECTION/INPUT [3]: 0.33

B5: B1.1, selected cyclic, disulfide peptide (bicyclic: lactam and disulfide), synthetic, without the N-terminal methionine (peptide)
peptide: WALQLCHSMFYTCKSG
modifications: N-terminal acetylation (ac); lactam (isopeptide) bridge Q4-K14; disulfide bond C6-C13
notes: Made by solid phase synthesis on Rink Amide resin; also called Selected B1.1; oxidized B1.1 (with disulfide bridge)
- Kd (murine B7-H3 (mB7-H3) [4]): 161 nM
- koff (murine B7-H3 (mB7-H3) [4]): 0.0176 s⁻¹
- kon (murine B7-H3 (mB7-H3) [4]): 109000 M⁻¹ s⁻¹
- koff (human B7-H3 (hB7-H3) [1]): 0.0267 s⁻¹
- kon (human B7-H3 (hB7-H3) [1]): 253000 M⁻¹ s⁻¹
- koff [7]: 0.00674 s⁻¹
- kon [7]: 155000 M⁻¹ s⁻¹
- Kd (human B7-H3 (hB7-H3) [8]): 105 nM
- Kd [9]: 43.5 nM

B6: AM5 (peptide)
peptide: Ac-CWTIRAINGTRC-NH2
modifications: bridge 1-12; also: bracket C1-C12, bond type not given here
notes: Member of the JP5 alanine mutant library; also called JP5 alanine mutant 5
- SELECTION/INPUT [3]: 0.411

B8: AM4 (peptide)
peptide: Ac-CWTIADINGTRC-NH2
modifications: bridge 1-12; also: bracket C1-C12, bond type not given here
notes: Member of the JP5 alanine mutant library; also called JP5 alanine mutant 4
- SELECTION/INPUT [3]: 0.58

B10: AM6 (peptide)
peptide: Ac-CWTIRDANGTRC-NH2
modifications: bridge 1-12; also: bracket C1-C12, bond type not given here
notes: Member of the JP5 alanine mutant library; also called JP5 alanine mutant 6
- SELECTION/INPUT [3]: 1.99

B11: AM2 (peptide)
peptide: Ac-CWAIRDINGTRC-NH2
modifications: bridge 1-12; also: bracket C1-C12, bond type not given here
notes: Member of the JP5 alanine mutant library; also called JP5 alanine mutant 2
- SELECTION/INPUT [3]: 1.4

Other lines, results leading:

- koff (human B7-H3 (hB7-H3) [1]): 14.7 s⁻¹
- kon (human B7-H3 (hB7-H3) [1]): 7.44e+07 M⁻¹ s⁻¹
- Kd (human B7-H3 (hB7-H3) [2]): 198 nM
B1: reduced B1.1 (no disulfide bridge) (peptide)
peptide: WALQLCHSMFYTCKSG
modifications: no disulfide bridge (reduced cysteines C6 and C13); lactam bridge Q4-K14 and N-terminal acetylation as in B1.1
notes: also called reduced form of B1.1

- koff (murine B7-H3 (mB7-H3) [4]): 0.0605 s⁻¹
- kon (murine B7-H3 (mB7-H3) [4]): 102000 M⁻¹ s⁻¹
- koff (human B7-H3 (hB7-H3) [1]): 0.0966 s⁻¹
- kon (human B7-H3 (hB7-H3) [1]): 125000 M⁻¹ s⁻¹
- Kd (murine B7-H3 (mB7-H3) [5]): 591 nM
- Kd (human B7-H3 (hB7-H3) [6]): 772 nM
Binder: Ac-CWTIRDINGTRCG-NH2 (linker 1-12 via DBX; reading uncertain, also called JP5 variant) [JP5, thioether (dibromoxylene) linked macrocyclic peptide from the DBX-mediated B7-H3 selection]

- SELECTION/INPUT [3]: 1.34
B7: AM10 (peptide)
peptide: Ac-CWTIRDINGTAC-NH2
modifications: bridge 1-12; also: bracket C1-C12, bond type not given here
notes: Member of the JP5 alanine mutant library; also called JP5 alanine mutant 10

- SELECTION/INPUT [3]: 0.338
B9: AM8 (peptide)
peptide: Ac-CWTIRDINATRC-NH2
modifications: bridge 1-12; also: bracket C1-C12, bond type not given here
notes: Member of the JP5 alanine mutant library; also called JP5 alanine mutant 8

- SELECTION/INPUT [3]: 0.422
B12: AM9 (peptide)
peptide: Ac-CWTIRDINGARC-NH2
modifications: bridge 1-12; also: bracket C1-C12, bond type not given here
notes: Member of the JP5 alanine mutant library; also called JP5 alanine mutant 9
